In patent US20170145113A1 (Genentech, published 2017):
Where a chain is given by its changes, count along the chain named. Numbers in names are those of the source. Blank lines part the entries; values can stand above or below the binder they belong to.

Legend:
[1] = biological target: T1, murine HtrA4 protease domain (murine, UniProt A2RT60 160-371, limits assumed); experiment: ELISA, hybridoma clone
T1 construct: domain: PD (protease domain); also called muHtrA4-PD; murine HtrA4-PD
T1 sequence (looked up): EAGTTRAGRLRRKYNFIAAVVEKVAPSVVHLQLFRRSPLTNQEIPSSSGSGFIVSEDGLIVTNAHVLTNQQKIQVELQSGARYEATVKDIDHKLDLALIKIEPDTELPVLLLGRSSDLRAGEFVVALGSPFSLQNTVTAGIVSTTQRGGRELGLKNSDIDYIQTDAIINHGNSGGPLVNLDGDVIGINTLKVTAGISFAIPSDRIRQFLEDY

[2] = biological target: purified full-length murine HtrA1 (murine, UniProt Q9R118 23-480); experiment: cell-based or functional assay
[3] = biological target: purified full-length human HtrA1 (human, UniProt Q92743 23-480); experiment: cell-based or functional assay
[4] = biological target: T2, His-tagged human HtrA1 protease domain (human, UniProt Q92743 161-367); experiment: phage competition ELISA (Fab on phage, HtrA1 in solution)
T2 construct: His-tagged protease domain; also called huHtrA1-PD-His; huHtrA1-PD
Experimental: (§1) MAXISORP™ microliter plates were coated with human HtrA1-PD-His at 2 μg/ml in PBS for 2 h and then blocked with PBST buffer (0.5% BSA and 0.05% TWEEN®20 in PBS) for 1 h at room temperature. Phage purified from culture supernatants were incubated with serially-diluted human or murine HtrA1 in PBST buffer in a tissue-culture microtiter plate for 1 h, after which 80 μl of the mixture was transferred to human HtrA1-coated wells for 15 min to capture unbound phage. The plate was washed with PBT buffer (0.05% TWEEN®20 in PBS), and HRP-conjugated anti-M13 antibody (Amersham Pharmacia Biotech) was added (1:5000 in PBST buffer) for 40 min. The plate was washed with PBT buffer and developed by adding tetramethylbenzidine substrate (Kirkegaard and Perry Laboratories, Gaithersburg, Md.). The absorbance at 450 nm was plotted as a function of target concentration in solution to determine phage IC50.

[5] = biological target: T3, His-tagged recombinant murine HtrA1 protease domain (murine, UniProt Q9R118 156-367); experiment: as above
T3 construct: His-tagged protease domain; also called muHtrA1-PD-His; muHtrA1-PD
Experimental: as §1

[6] = biological target: T2, His-tagged human HtrA1 protease domain; experiment: SPR (BIACORE), Fab
[7] = biological target: T2, His-tagged human HtrA1 protease domain; experiment: BIACORE SPR, single-cycle kinetics; Fab analyte over captured human HtrA1
[8] = biological target: T2, His-tagged human HtrA1 protease domain; experiment: SPR (BIACORE T200), huHtrA1-PD-His captured by anti-His, Fab injected
Experimental: These combination mutants included both a variant light chain and a variant heavy chain. BIACORE™ kinetic analysis was performed (as described below in Section C) using the combination mutants.
(§2) To determine the binding affinity of selected Fab variants for HtrA1, SPR measurement with a BIACORE™ T200 instrument was performed. Briefly, a series S sensor chip CM5 was activated with 1-EDC and NHS reagents according to the supplier's instructions, and anti-His antibody was coupled to achieve 200-300 response units (RU), then following by blocking un-reacted groups with 1 M ethanolamine. For kinetics measurements, approximately 5 nM of huHtrA1-PD-His was first injected at 10 μl/min flow rate to capture approximately 100 RU at 2 different flow cells (FC), except for FC1 (which served as a reference). Next, 5-fold serial dilutions of Fab in HBS-P buffer (0.01M HEPES pH 7.4, 0.15M NaCl, 0.005% surfactant P20) from low (0.8 nM) to high (50 nM) were injected (flow rate: 30 μl/min). The binding responses on HtrA1 were corrected by subtracting of RU from a blank flow cell. The sensorgram was recorded and subject to reference and buffer subtraction before evaluating by BIACORE® T200 Evaluation Software (version 2.0). Association rates (kₒₙ) and dissociation rates (koff) were calculated using a simple one-to-one Langmuir binding model. The equilibrium dissociation constant (KD) was calculated as the ratio of koff/kₒₙ.

[9] = biological target: T2, His-tagged human HtrA1 protease domain; experiment: SPR (BIACORE), Fab; remark: listed apart in the source
Description: (§3) To address W91 oxidation in HVR-L3, 2 variants (LC-W91Y and LC-W91L) were generated and produced as Fabs for BIACORE™ SPR binding analysis.
(§4) To determine the binding affinity of anti-HtrA1 Fabs by single-cycle kinetics, (SPR) measurement with a BIACORE™ T100 instrument was used. Briefly, a series S sensor chip CM5 was activated with 1-ethyl-3-(3-dimethylamino-propyl)carbodiimide hydrochloride (EDC) and N-hydroxysuccinimide (NHS) reagents according to the supplier's instructions, and streptavidin (Pierce) was coupled to achieve approximately 2500 response units (RU), followed by blocking un-reacted groups with 1 M ethanolamine.
(§5) For kinetics measurements, biotinylated human or murine HtrA1-PD-His was first injected at 10 μl/min flow rate to capture approximately 150 RU at 3 different flow cells (FC), except for FC1 (which served as a reference), and then 5-fold serial dilutions of anti-HtrA1 Fab in HBS-P buffer (0.01M HEPES pH 7.4, 0.15 M NaCl, 0.005% surfactant P20) from low (0.48 nM) to high (300 nM) were injected (flow rate: 30 μl/min) one after the other in the same cycle with no regeneration between injections. The sensorgram was recorded and subject to reference and buffer subtraction before evaluating by BIACORE™ T100 Evaluation Software (version 2.0). Association rates (kₒₙ) and dissociation rates (koff) were calculated using a simple one-to-one Langmuir binding model. The equilibrium dissociation constant (KD) was calculated as the ratio koff/kₒₙ.

[10] = biological target: T3, His-tagged recombinant murine HtrA1 …; experiment: SPR (BIACORE), Fab
Description: as §3, §4, §5

[11] = biological target: T2, His-tagged human HtrA1 protease domain; experiment: BIACORE SPR, Fab analyte, Human HtrA1-PD (N=2)
[12] = biological target: T2, His-tagged human HtrA1 protease domain; experiment: SPR (BIACORE T200), huHtrA1-PD-His captured by anti-His, Fab injected; remark: listed apart in the source
Experimental: as §2

[13] = biological target: T2, His-tagged human HtrA1 protease domain; experiment: BIACORE SPR analysis, Fab format
Experimental: as §2

[14] = biological target: T2, His-tagged human HtrA1 protease domain; experiment: BIACORE T200 SPR; Fab analyte over huHtrA1-PD-His captured by anti-His antibody
Experimental: as §2

[15] = biological target: T2, His-tagged human HtrA1 protease domain; experiment: BIACORE SPR, single-cycle kinetics; Fab analyte over captured human HtrA1; remark: listed apart in the source
[16] = biological target: T2, His-tagged human HtrA1 protease domain; experiment: cell-based or functional assay
[17] = biological target: T2, His-tagged human HtrA1 protease domain; experiment: cell-based or functional assay; remark: listed apart in the source
[18] = biological target: T2, His-tagged human HtrA1 protease domain; experiment: BIACORE SPR, single cycle kinetic analysis; ligand streptavidin-captured biotin human HtrA1, analyte Fab
Description: as §4, §5

[19] = biological target: T3, His-tagged recombinant murine HtrA1 …; experiment: BIACORE SPR, single cycle kinetic analysis; ligand streptavidin-captured biotin murine HtrA1, analyte Fab
Description: as §4, §5

[20] = biological target: T2, His-tagged human HtrA1 protease domain; experiment: SPR (BIACORE T100), single-cycle kinetics; biotinylated HtrA1-PD-His on streptavidin, Fab injected
Description: as §4, §5

[21] = biological target: T3, His-tagged recombinant murine HtrA1 …; experiment: as above
Description: as §4, §5

T2 sequence (Q92743 other isoform, or with tags, fused parts or gaps limits assumed): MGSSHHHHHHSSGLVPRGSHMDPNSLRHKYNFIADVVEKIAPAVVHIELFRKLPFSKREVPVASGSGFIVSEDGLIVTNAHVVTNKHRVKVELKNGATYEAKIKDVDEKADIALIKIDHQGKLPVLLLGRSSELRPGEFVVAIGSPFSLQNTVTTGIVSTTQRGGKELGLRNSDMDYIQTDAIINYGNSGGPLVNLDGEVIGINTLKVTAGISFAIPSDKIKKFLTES
purified full-length human HtrA1, sequence (Q92743 23-480): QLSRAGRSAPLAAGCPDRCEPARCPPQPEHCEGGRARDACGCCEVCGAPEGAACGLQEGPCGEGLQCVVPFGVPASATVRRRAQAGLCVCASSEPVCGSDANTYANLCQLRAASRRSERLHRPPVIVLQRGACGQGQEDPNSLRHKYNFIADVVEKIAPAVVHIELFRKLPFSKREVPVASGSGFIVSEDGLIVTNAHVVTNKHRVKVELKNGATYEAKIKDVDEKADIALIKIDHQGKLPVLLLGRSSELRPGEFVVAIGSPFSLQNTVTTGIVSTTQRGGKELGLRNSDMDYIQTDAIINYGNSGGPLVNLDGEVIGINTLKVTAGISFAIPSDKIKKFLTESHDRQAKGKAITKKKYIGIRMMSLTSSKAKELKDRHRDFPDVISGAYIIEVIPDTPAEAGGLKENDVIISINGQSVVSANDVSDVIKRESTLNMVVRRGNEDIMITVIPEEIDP

binding result [1]: no binding
IC50, FRET-based blocking assay (H2-Opt cleavage) [2]: 1000 pM
IC50, FRET blocking assay, recombinant antibody from 293 cells [3]: ~1200 pM
IC50, FRET-based blocking assay (H2-Opt cleavage) [3]: 1400 pM
B1: anti-HtrA1 hybridoma antibody clone 19B12 (antibody, V domains shown)
VH: EVKLVESGGGLVEPGGSLKLACVASGFTFSSYIMSWVRQTPEKRLEWVAYISNGGGTTYYSDTIKGRFTISRDNAKNTLYLQMSTLKSEDTAIYFCARQNFRSDGSSMDYWGQGTAVTVSS
VL: NIVVTQSPASLAVSLGQRATISCRASESVDSYGKSFMHWYQQKPGQPPKLLIYLASKLESGVPARFSGSGSRTDFTLTIDPVEADDAATYYCQQNNEDPYTFGGGTKLEIK
notes: Murine mIgG2a, from hybridoma or recombinant from 293 cells; also called m19B12

binding result [4]: binds
binding result [5]: binds
B2: h15H6.v1 HC-A71R variant (Fab, V domains shown)
VH: EVQLVQSGAEVKKPGASVKVSCKASGYTFTDSEMHWVRQAPGQGLEWIGGVDPETDGAAYNQKFKGRATLTRDTSTSTAYLELSSLRSEDTAVYYCTRGYDYDYALDYWGQGTLVTVSS
VL: DIQMTQSPSSLSASVGDRVTITCRASSSVNFIHWYQQKPGKAPKPWISATSNLASGVPSRFSGSGSGTDFTLTISSLQPEDFATYYCQQWSSNPWTFGQGTKVEIK
notes: built as h15H6.v1

binding result [4]: binds
binding result [5]: binds
B3: h15H6.v1 HC-L69I variant (Fab, V domains shown)
VH: B2 VH with L70I, R72A
VL: B2 VL
notes: built as h15H6.v1

fold reduction of binding against h15H6.v1 [4]: ~10 fold
fold reduction of binding against h15H6.v1 [5]: ~10 fold
B4: h15H6.v1 LC-S49Y variant (Fab, V domains shown)
VH: B2 VH with R72A
VL: B2 VL with S48Y
notes: built as h15H6.v1

binding result [4]: binds
binding result [5]: binds
B5: h15H6.v1 LC-W47L variant (Fab, V domains shown)
VH: B2 VH with R72A
VL: B2 VL with W46L
notes: its VL equals the VL of h15H6.v2, which carries LC-W47L as its only light chain change

fold reduction in binding affinity against h15H6.v2 [6]: ~2 fold
Kd [7]: 520 pM
koff [7]: 0.00025 s⁻¹
kon [7]: 480000 M⁻¹ s⁻¹
B6: h15H6.v2 LC-N94S LC-P95 Fab (Fab, V domains shown)
VH: B2 VH with L70I
VL: B2 VL with W46L, N93S
notes: Produced as Fab; also called SP

Kd [8]: 220 pM
koff [8]: 0.000158 s⁻¹
kon [8]: 722000 M⁻¹ s⁻¹
Kd [9]: 200 pM
koff [9]: 0.00012 s⁻¹
kon [9]: 690000 M⁻¹ s⁻¹
Kd [10]: 400 pM
koff [10]: 0.00015 s⁻¹
kon [10]: 360000 M⁻¹ s⁻¹
Kd [11]: 400 pM
koff [11]: 0.00021 s⁻¹
kon [11]: 490000 M⁻¹ s⁻¹
Kd [12]: 220 pM
koff [12]: 0.000158 s⁻¹
kon [12]: 722000 M⁻¹ s⁻¹
Kd [13]: 219 pM
Kd [14]: 219 pM
Kd [15]: 330 pM
koff [15]: 0.00014 s⁻¹
kon [15]: 430000 M⁻¹ s⁻¹
Kd [7]: 250 pM
koff [7]: 0.00016 s⁻¹
kon [7]: 630000 M⁻¹ s⁻¹
IC50, FRET-based H2-Opt blocking assay [16]: ~390 pM
IC50 FRET (H2-Opt substrate cleavage) [17]: 440 pM
IC90 FRET (H2-Opt substrate cleavage) [17]: 1870 pM
Max inhibition (FRET H2-Opt assay) [17]: 91
B7: h15H6.v2 Fab (Fab, V domains shown)
VH: B2 VH with L70I
VL: B2 VL with W46L
notes: Tested as Fab; also called parent; parental Fab

Kd [18]: 24000 pM
koff [18]: 0.00345 s⁻¹
kon [18]: 144000 M⁻¹ s⁻¹
Kd [19]: 6650 pM
koff [19]: 0.00134 s⁻¹
kon [19]: 201000 M⁻¹ s⁻¹
fold improvement of KD against m19B12 [6]: ~2 fold
Kd [20]: 10700 pM
koff [20]: 0.0016 s⁻¹
kon [20]: 150000 M⁻¹ s⁻¹
Kd [21]: 7600 pM
koff [21]: 0.00091 s⁻¹
kon [21]: 120000 M⁻¹ s⁻¹
B8: h19B12.v1 Fab (Fab, V domains shown)
VH: EVQLVESGGGLVQPGGSLRLSCAASGFTFSSYIMSWVRQAPGKGLEWVAYISNGGGTTYYSDTIKGRFTISRDNSKNTLYLQMNSLRAEDTAVYYCARQNFRSDGSSMDYWGQGTLVTVSS
VL: DIVMTQSPDSLAVSLGERATINCRASESVDSYGKSFMHWYQQKPGQPPKLLIYLASKLESGVPDRFSGSGSGTDFTLTISSLQAEDVAVYYCQQNNEDPYTFGQGTKVEIK
notes: Tested in Fab format
